The record followed here is the DeepSol protein solubility set.

The data set in a line: soluble on expression in E. coli; label from the status in PepcDB or PDB records.
Take “GEGSPVGIAILGYGTVGSQVLRLLTENHNDFQHRAGGPLEIKGVAASSVEKHRGSLADQLGLLTDDARSLIARDDVDIVVEVIGGIDYPRELILEALHSGKSVVTANKALVAAHSEELAAAADEAGVDLYFEAAVAAAIPVLGPLRRSLAGDQIQSVAGIVNGTTNFILDAMDSTGASYDDMLAEATRLGYAEADPTADVEGHDAASKAAILASLAFHTRVTYADVYCEGISKITADDINAAKEAGFTIKLLAICERLNVDGVEKVSARVHPTLVPRNHPLASVDKSFNAIFVEAEAAGRLMFYGNGAGGNPTASAVLGDIVGAARNKVFGGRAPGESTYADLPIAPFGEVPTRFHIDMEVEDRVGVLADLAKTFSNHGISLRTVRQAEKDGHARLIVVTHTAKESELEATVEQIKNSDSVKKINSVIRLAG”: the “soluble on expression in E. coli” value is recorded as “not soluble”.
As to “MSLKEANLLIDLRGEPGINCNGFCKFCYFRKVNKNNPQPFGCRYCQFTVGCDYCMYSVREINGDFIPLPFALMELQSSLLFKRYSKVNLTAGGDVSCYPQLEELCKAINNIGLKIHLGYTSGKGFDNVEIAKNLVDYGVDEVTFSVFSTNPKLRKEWMNDKNAETALKCLRYFCENCEVHCAIIVIPGVNDGEELKKTVSDLVDWGANAVILMRFANSEEQGLILGNAPLIEGIKPHSVEEFKNIVDEIHNEFGDYIRVTGTPLHDPVAGTPFALAKEENSHILERLKDKINGEATIITGNVAYPFLKKIFDETSVNVVKVNKDIADLITAKDLEKLDLKDVKETVFIPPKAFVHDRVAEEILRRDGVDRIVVRGVEQLTLDGEVSGIYTREEALKFEIEAFEELIGMINFFGMKKQEGHHHHHH”, the “soluble on expression in E. coli” value is given as “soluble”.
On to “MPTTQINIVLAEPRCMAGEFFNAKVLLDSSDPDTVVHSFCAEIKGIGRTGWVNIHTDKIFETEKTYIDTQVQLCDSGTCLPVGKHQFPVQIRIPLNCPSSYESQFGSIRYQMKVELRASTDQASCSEVFPLVILTRSFFDDVPLNAMSPIDFKDEVDFTCCTLPFGCVSLNMSLTRTAFRIGESIEAVVTINNRTRKGLKEVALQLIMKTQFEARSRYEHVNEKKLAEQLIEMVPLGAVKSRCRMEFEKCLLRIPDAAPPTQNYNRGAGESSIIAIHYVLKLTALPGNGVLY”, for which the “soluble on expression in E. coli” value is “not soluble”.
Regarding “MDILQTRYFELSNPTTGEHKFYELTLHEDGTLISRYGRIGANGQNKTQQFNSVEAMLKAADKTTAEKLNKGYQVANAGETAAQETRHQRILRNVREFYELISNGDSKLAQRCSVEFKAFIEDEDNKEEYEDQDNELINNGIREAADWELVFFVDWKDTESMLDVLDTLCSNLNIDIVFDWGCDVPEDELKVGQIMLLAHEQLQQQGFALWHWDTGHDAYLGWIARMAYQTQIASCVQALDLDAAYPNPEKLTLEHHHHHH”, the “soluble on expression in E. coli” value is reported as “soluble”.
Consider “MSLTKPTIALTELVEKGADADLLKQMIQFVAQRMMEFDVEGLCGAGFDVKSPDRTNSRNGYRDRLWQTRAGDVDLKIPKLRQGNYFPGFLEPRRTAEKAMAAVIQEAYIQGVSTRSVDELVKAMGMTGISKSQVSRLAGEIDERVHAFLDRPLEGDWPYLWIDATYVKVREAGRIVSVVVIIAVAVNTDGGREVLGMRVGPSEAEPFWTDFLRSLMRRGLRGVKLVISDAHEGLKAAASKVFNATWQRCRVHFMRNAMAHVGKGQRTMVAALLRTVFAQDSRAECHQQWRLVADQLREKYPKIATLMDGCEDEVLAHMAFPKAHRQQLHSTNPLERLNAEIKRRTDVVGIFPNDPAITRLVGAMLLEQNDEWCLQRRYMQLEAFEAVSDNPQAKLSAVINEGHHHHHH”, for which the “soluble on expression in E. coli” value is listed as “soluble”.
Take “MGSDKIHHHHHHMNNKDLWIKEEIIWSEHKCIRFAAGGYEALIIPDVGGNVVELKDTNKGVTILRTPKKDLKFEDFKNRPQVYGLPVLFPPNRIDDGTFKLGDKTYKFPINEAKNNNYIHGFIKNSKWTVHKKKIDQDKALVEVVFDFTKENEAYKYFSHEFQFKLSYELSSKGLKQTTSVVNLSSEEMPLSVGYHSAFNVPFIEGSEDSNCRVKISIDKFWKQDSRNLPTGESFAPTGEQKEYLENGVAVASHPIESLFSLKDIDVNGKTFRGACIEDASKNTRVVYEMSSEYKYLVIWNDMGDKKYACIEPQTSIINSPNVKLDRSVSGFKTLKPNESWSGVCKLYIENM”: the “soluble on expression in E. coli” value is listed as “not soluble”.
For “MSLDKHLLVKRTLGCVCAATLMGAALATHHDSLNTVKAEEKTVQVQKGLPSIDSLHYLSENSKKEFKEELSKAGQESQKVKEILAKAQQADKQAQELAKMKIPEKIPMKPLHGPLYGGYFRTWHDKTSDPTEKDKVNSMGELPKEVDLAFIFHDWTKDYSLFWKELATKHVPKLNKQGTRVIRTIPWRFLAGGDNSGIAEDTSKYPNTPEGNKALAKAIVDEYVYKYNLDGLDVDVEHDSIPKVDKKEDTAGVERSIQVFEEIGKLIGPKGVDKSRLFIMDSTYMADKNPLIERGAPYINLLLVQVYGSQGEKGGWEPVSNRPEKTMEERWQGYSKYIRPEQYMIGFSFYEENAQEGNLWYDINSRKDEDKANGINTDITGTRAERYARWQPKTGGVKGGIFSYAIDRDGVAHEGHHHHHH”, the “soluble on expression in E. coli” value is on record as “soluble”.
With “MEPPLTVGAWTMTADSTVTEPIAAAATTTIVADVAIVGGGLAGSLAAAVLARAGHRVALVDKRAVYPDEFRVEKIGGPQLEMFRRLGFIRGLASVACPYDQVLNVREGKVVDVSVGQAYGLPYAGLVAMARGQIPDPSSLIVDEVTAVTCSDDVQHLELASGRRLNARLVVLATGMAGALGYKLGIRRRVLAAGHSVSFGFTIVRRDGTPFDFKALTCYGERTSDGVDYLSLFPVPAGMRANLFMFRDPTDPVMRDLRRDTEATVLRLLPGLQPYLGDFRVTDRVQNWVMDLSVVEGHLQPGVVLIGDAFQTNCPAAGTGVARLLVDVERLCTEYAPRWLATEGMGKEKISEFYSDRDKIAADQQSLKMARFRQALTSRDDISWDVRRRLHFLRRSITHRVDQMRPGWLAQVRSALRALEHHHHHH”, the “soluble on expression in E. coli” value is “not soluble”.
As for “MGSDKIHHHHHHMSDVIEQYFVKNEPYYRPVADEVKLYEAAYSVRMPMMLKGPTGCGKTRFVEYMAWKLGKPLITVACNEDMTASDLVGRFLLDAQGTRWQDGPLTTAARYGAICYLDEVVEARQDTTVVIHPLTDNRRVLPLEKKGELVGAHPDFQLVISYNPGYQSLMKDLKQSTKQRFGALDFNYPQHDIETEIVSHETGIDSAIADKLVSIAERARNLKGHGLDEGISTRMLIYAGNLIAKGVDVHAACRMALVRPITDDPDMRDALDAAVTTFF”, the “soluble on expression in E. coli” value is “not soluble”.
Turning to “SDRRTRENPERTFDLVLKVKCHASENEDPEVLWKFPEDFGDQEVLQSVPKFCFPFDVERVSQNQVGQHFTFVLTDMESKQRFGFCRLTSGGRICLCILSYLPWFEVYYKLLNTLADYLAKELEEDLNETLKSLYNHPVPKANTPVNLSVNQELFIASEQVLKDDPSLIPHSCFITPDITGLPTIPESRNLTEYFVAVDVNNMLRLYASMLHERRIIITSSKLSTVSPSHLRL”, the “soluble on expression in E. coli” value is “soluble”.
Regarding “GSMNPEEKTVMLYNEYAEQAVLGSILTEPELIKECPLTPEHFSPGKHFNIYFTMQDLDRKGQSVDFTSIAARVGEKLPQLGGFGYLTELAASVASTTTFKQHCQTVSEYFQKRKAISIAQQIIENVNESDDGPVKPIQEAVSELMEIEASGTDDDDGSIDEALVTVYEEIESADGNITGVPSGFTELDRMTYGYKRRNFVLIAARPSMGKTAFALKQAKNMSDNDDVVNLHSLEMGKKENIKRLIVTAGSINAQKIKAARRDFASEDWGKLSMAIGEISNSNINIFDKAGQSVNYIWSKTRQTKRKNPGKRVIVMIDYLQLLEPAKANDSRTNQISQISRDLKKMARELDVVVIALSQLSRQVEQRQDKRPMLSDLRESGQLEQDADIIEFLYRDDYYDKESESKNIVEVIIAKHRDGPVGTVSLAFIKEYGNFVNLERRFDDR”, the “soluble on expression in E. coli” value is “soluble”.
In the case of “PDVSALDEVVVEAYGSKTRKITTTGAVTSVDVATLQTPATSLANMLGGRVAGIISTQGSGEPGKNISDFWIRGIGTFGANASALVLIDGLEGSLNDVDPADIESFSVLKDASATAMYGVRGANGVVLVTTKRGKQEK”, the “soluble on expression in E. coli” value was “not soluble”.
As for “MGSDKIHHHHHHMPKNWTLKVDQYINANSNCIIATAHVDSFPTDLPLEPNIREPNLKSSTYKQIFDSLTTEPEKFFQRNNGIVLCVNKVKPKNRTELELEILQANEGGNDGVINGGHSVSAFEQARKFKYDLTLARVKVTIHIGLSEDEAKDIALASNTSAPVDARSKVNARGDYQFIKQFLAQLEREEDTKFRIAYYQNQSGAPKSPQCNVNHLIKLMNCLDRNKYNPNTNKSKGKHPPVSNNPSLTDAERERLSRLLPLLPKALWIEQRFFKTIEAYITNPKKKGVDLASIDARKNTLLPDSRYSFGFSAPADIAMPIVAAYRVFLDENYNWLIPFDDFAEDFLQHLWNNYYRKYLVSEKFSGNTVGSKICRNPVIWDSLYVSAQSYLNQQLLKMVSSSKNKREELKLAN”, the “soluble on expression in E. coli” value is “not soluble”.
On to “SYYHHHHHHLESTSLYKKAGLKIKAVGAYSAKQPLEPMDITRREPGPNDVKIEIAYCGVCHSDLHQVRSEWAGTVYPCVPGHEIVGRVVAVGDQVEKYAPGDLVGVGCIVDSCKHCEECEDGLENYCDHMTGTYNSPTPDEPGHTLGGYSQQIVVHERYVLRIRHPQEQLAAVAPLLCAGITTYSPLRHWQAGPGKKVGVVGIGGLGHMGIKLAHAMGAHVVAFTTSEAKREAAKALGADEVVNSRNADEMAAHLKSFDFILNTVAAPHNLDDFTTLLKRDGTMTLVGAPATPHKSPEVFNLIMKRRAIAGSMIGGIPETQEMLDFCAEHGIVADIEMIRADQINEAYERMLRGDVKYRFVIDNRTLTD”, for which the “soluble on expression in E. coli” value is “soluble”.
For “MDLKVVVSLSSRLYTDEIAKMQQRIGCILPLASTHGTQNVQGLGLGQVYSLETVPDYVSMYNYLSDCTLAVLDEVSVDSLILTKIVPGQTYAIKNKYQPFFQWHGTGSLSVMPPVFGREHATVKLESNDVDIVFPMVLPTPIAEEVLQKILLFNVYSRVVMQAPGNADMLDVHMHLGSVSYLGHHYELALPEVPGPLGLALLDNLSLYFCIMVTLLPRASMRLVRGLIRHEHHDLLNLFQEMVPDEIARIDLDDLSVADDLSRMRVMMTYLQSLASLFNLGPRLATAAYSQETLTATCWLR”, the “soluble on expression in E. coli” value is recorded as “not soluble”.
Regarding “MSLKISIVTSTNVYADIAKNIVGKYGSAKAIIKNSATDPHDFEPTTQDAKELSSTNIIVANGLGYDSWMNKLASSVDKKPVLVGEELMKLKKGANPHIWYSLSMPTEYVDYLVKRLSKIDSKHKAYFEANGKKYLAKINQVKALAKNSKKTDKMVFVSEPVFDYALAEAGYKIGDKDFEKAVENNTDPSPKTINRMTNDIKNKKIAFFVNNTQSSSSTVKTFVKLAKQNNIPVLNVRETIPNHTTYLNWMKENYQNLANISKEGHHHHHH”, the “soluble on expression in E. coli” value was “soluble”.
Then “MGSDKIHHHHHHMENKVKTVAVFSGYYLPFLGGIERYTDKMTADLVKRGYRVVIVTTNHGDLPIIDEDKGRKIYRLPTKNIVKQRYPIINKNREYNTLMKYVSDENIDFVICNTRFQLTTLEGLSFAKNHHLPSIVLDHGSSHFSVNNRFLDFFGAIYEHLLTARVKHYRPDFYAVSKRSVEWLKHFNIEAKGVIYNSVSESLGSDFAGTAYLEKSADDIFITYAGRIIKEKGIELLLEAFSMSQYSENVYLQIAGDGPELAHLKEKYQSKQINFLGKLNFEQTMSLMAQTDIFVYPSMYPEGLPTSILEAGLLSSAIIATDRGGTVEVIDSPELGIIMEENTQSLHESLDLLVKDKALREKLQQNIAKRIKEHFTWEKTVEKLDYIIQKN”, with “not soluble”.
Consider “MAEGPLEAPFWRKGLLVAGLDEAGRGAWAGPIVVGAVVLPPGEYPFRDSKLLSPKARERLAEKVKEVALAFALGVAEAAEVDRLGVLKATLLAAERALLSLPLAPEALVTDYLPLPTPLPLLSPPKADEKSPTVAAASILAKVHRDRIMDELDRLYPGYGFARHKGYGTQEHQEALLALGPSPVHRKRFAPVAQAPLRFPEAP”, for which the “soluble on expression in E. coli” value was “soluble”.
